In patent publication US20200157537, “Modulating RNA Interactions with Polycomb Repressive Complex 1 (PRC1)” (The General Hospital Corporation, published 2020):

Legend:
GFP (control protein) = GFP (control protein) (UniProt P42212 P42212:1-238); test: EMSA; control protein; conditions: tags: Flag; label: radiolabelled
Experimental: (§1) RNA-EMSA assays with CBX7 protein were performed as follows. Labeled RNAs were produced with MEGAscript® T7 Transcription Kit (Life Technologies) and purified from 6% acrylamide TBE-urea gels. Labeled RNAs were prefolded in buffer TE+300 mM NaCl by incubating for 2 min at 95° C., followed by 20 min incubation on ice. Binding reactions were assembled with 20 μl of binding mix (13 mM Tris pH 8.0, 0.2 mM EDTA, 68.8 mM NaCl, 20% Glycerol, 0.2 mg/ml Yeast tRNA, 4 mM DTT, 4 μl 2500 cpm/μl RNA probe). LNA oligonucleotides were added to binding mix at final concentration of 8 μM and samples were pre-incubated on ice for 10 min. After pre-incubation, binding mix samples were combined with 60 μl of purified protein in dialysis buffer (50 mM Tris pH 7.4, 5 mM MgCl₂, 50 mM NaCl, 1 mM DTT, 10% Glycerol, 4 u/μl Protector RNAse inhibitor (Roche)). Control experiments were performed with dialysis buffer only or control proteins—Flag-GFP or GST-Flag-HA, dissolved in dialysis buffer at the highest protein concentration in the particular experiment. After 30 min on ice, the sample was loaded onto a 5% 37:1 acrylamide (Bio-Rad) gel in 0.5× TBE buffer (45 mM Tris-Borate, 1 mM disodium EDTA) and run for 90 min at 250 V at 4° C. Gels were exposed to phosphorimager screens. For validation of motif sequences, labeled RNA probes were produced with MEGAshortscript™ T7 Transcription Kit (Life Technologies) and gel purified using 15% TBE-urea gels (Life technologies) Similar RNA-EMSA conditions were applied except 8% 37:1 acrylamide (Bio-Rad) gels replaced 5% gels.

CBX7 [1] = target: T1, CBX7 (Mus musculus, UniProt Q8VDS3 Q8VDS3:1-158); test: EMSA; low micromolar range, value only in figure; positive cooperativity; yeast tRNA, Mg2+, on ice; conditions: tags: C-terminal Flag-HA; baculovirus Sf9, anti-FLAG M2 purified; label: radiolabelled
T1 sequence (Q8VDS3 whole entry, one chain of several): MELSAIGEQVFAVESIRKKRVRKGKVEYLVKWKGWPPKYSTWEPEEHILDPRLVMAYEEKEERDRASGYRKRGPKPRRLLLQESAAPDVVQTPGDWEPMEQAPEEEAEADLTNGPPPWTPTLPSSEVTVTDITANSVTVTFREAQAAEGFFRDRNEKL
Experimental: as §1, with “For validation of motif sequences, labeled RNA probes were produced with MEGAshortscript™ T7 Transcription Kit (Life Technologies) and gel purified using 15% TBE-urea gels (Life technologies) Similar RNA-EMSA conditions were applied except 8% 37:1 acrylamide (Bio-Rad) gels replaced 5% gels.” left out

CBX7 [2] = target: T1, CBX7; test: EMSA; low micromolar range, value only in figure; Hill coefficient suggests cooperativity, 2-3 sites; yeast tRNA, Mg2+, on ice; competed by cold Dcaf12l1; conditions: tags: C-terminal Flag-HA; baculovirus Sf9, anti-FLAG M2 purified; label: radiolabelled
Experimental: as §1, with “For validation of motif sequences, labeled RNA probes were produced with MEGAshortscript™ T7 Transcription Kit (Life Technologies) and gel purified using 15% TBE-urea gels (Life technologies) Similar RNA-EMSA conditions were applied except 8% 37:1 acrylamide (Bio-Rad) gels replaced 5% gels.” left out

B1: Calm2 3'UTR EMSA probe (ssRNA)
RNA: GUAGCUUUUAGGAACUGUCAGCAUGUUGUUGUUGAAGUGUGGAGCUGUAACUCUGCGUGGACUGUGGACAGUCAACAAUAUGUACUUAAAAGUUGCACUAUUGCAA
B1: no binding (GFP (control protein)); binds (CBX7 [1]).

B2: Dusp9 3'UTR EMSA probe (ssRNA)
RNA: GGCCACUUUGACUCGUGUAGACUCCUUCCUGCUUCUCUCACUAGGGCUUAGACUUCUUGGAACUGUAGGGUGUGAACCCAGAGAC
B2: no binding (GFP (control protein)); binds (CBX7 [1]).

B3: Dcaf12l1 3'UTR EMSA probe (ssRNA)
RNA: UCAAAUAGAGGAGCUGGGGAUUAAAAAGAUAGGUCUGAUUAAAGGACUGUGCAGUUCAGAUAAAUAGAGAUAAUGGGAUGCCGUGCGGAUAGAUUGGUUUUCUCC
B3: binds (CBX7 [2]); no binding (GFP (control protein)).
